Source: patent publication US20210214434A1 (LABORATOIRE FRAN AIS DU FRACTIONNEMENT ET DES …, published 2021)
Where a chain is given by its changes, count along the chain named. Numbers in names are those of the source. Each block holds one binder with its values, some of them ahead of it.

Legend:
[1] = molecular target: T1, CD32b (UniProt P31994 43-310, limits assumed); assay: competition assay, protocol and competitor for CD32b not described
T1 construct: probably on transfected cells as for CD32a
T1 sequence (looked up): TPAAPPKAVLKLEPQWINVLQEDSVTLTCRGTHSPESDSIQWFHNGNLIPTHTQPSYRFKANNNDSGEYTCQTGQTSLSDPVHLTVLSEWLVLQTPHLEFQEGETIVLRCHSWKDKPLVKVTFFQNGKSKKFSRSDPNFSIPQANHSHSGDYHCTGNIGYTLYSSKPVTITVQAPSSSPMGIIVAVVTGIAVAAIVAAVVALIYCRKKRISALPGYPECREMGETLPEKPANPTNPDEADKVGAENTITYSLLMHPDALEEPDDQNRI

[2] = molecular target: T2, human CD64 receptor expressed by Jurkat cells (Jurkat-CD64) (human, UniProt P12314 16-374); assay: flow cytometry competition on Jurkat-CD64 cells, displacement of Rituxan-A488 (25 µg/ml)
T2 construct: whole, on cells; also called hCD64; FcγRI (CD64)

[3] = molecular target: T3, human CD16aH receptor on transfected Jurkat cells (Jurkat-CD16aH) (human, UniProt P08637 17-254); assay: flow cytometry competition on Jurkat-CD16aH cells, displacement of mAb 3G8-PE (0.5 µg/ml)
T3 construct: whole, on cells; also called hCD16aH; CD16a-F
Description: The Jurkat-CD16aH cells are seeded in a 96-well plate (V bottom) at a concentration of 2.10⁵ cells per well.
The cells are then washed by adding […] of PBS at pH 6 and centrifuged at 1700 rpm for 3 minutes at 4° C. The supernatant is then removed and 300 μl of cold PBS is added at pH 6.

[4] = molecular target: T4, human CD32aH receptor on transfected HEK cells (HEK-CD32) (human, UniProt P12318 34-317); assay: flow cytometry competition on HEK-CD32 cells, displacement of Rituxan-A488 (30 µg/ml)
T4 construct: whole, on cells; also called hCD32aH; FcγRIIa (CD32a)
T4 sequence (looked up): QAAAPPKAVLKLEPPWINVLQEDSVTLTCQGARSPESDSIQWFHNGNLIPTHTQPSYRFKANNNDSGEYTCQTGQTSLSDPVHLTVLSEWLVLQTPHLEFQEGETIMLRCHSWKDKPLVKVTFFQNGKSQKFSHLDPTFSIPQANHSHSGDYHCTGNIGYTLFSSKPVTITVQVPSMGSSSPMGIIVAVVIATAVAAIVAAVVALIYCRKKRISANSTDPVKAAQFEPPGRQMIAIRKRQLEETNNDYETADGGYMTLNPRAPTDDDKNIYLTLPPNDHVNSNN
Description: (§1) The cells are then washed by adding 100 μl of PBS at pH 6 and centrifuged at 1700 rpm for 3 minutes at 4° C. The supernatant is then removed and 300 μl of cold PBS is added at pH 6.

[5] = molecular target: T5, human CD32aR receptor on transfected HEK cells (HEK-CD32) (human, UniProt P12318 34-317); assay: as above
T5 construct: whole, on cells; also called hCD32aR; FcγRIIa (CD32a)
T5 sequence (looked up): T4 sequence (looked up) with H134R
Description: as §1

[6] = molecular target: T6, human FcRn receptor expressed by Jurkat cells (Jurkat-FcRn) (human, UniProt P55899 24-365; P61769 21-119); assay: flow cytometry competition on Jurkat-FcRn cells, displacement of Rituxan-A488 (25 µg/ml), pH 6
T6 construct: whole, on cells; also called hFcRn
Description: The Jurkat-FcRn cells are seeded in a 96-well plate (V bottom) at a concentration of 2.10⁵ cells per well.
as §1

[7] = molecular target: T2, human CD64 receptor expressed by Jurkat …; assay: cell-based or functional assay
[8] = molecular target: T7, HisTag hCD16aV receptor (R&D System) (human, UniProt P08637 17-208); assay: BLI (Octet), HisTag hCD16aV on anti-Penta-HIS biosensors, 1/1 model; SD 18.1
T7 construct: Captured on anti-Penta-HIS biosensors; also called human FcγRIIIa-V; FcγRIIIa (CD16a); not shown: HisTag
Description: (§2) The molecules were tested at concentrations of 1000, 500, 250, 125, 62.5, 31, […] and 0 nM in kinetic buffer.
(§3) The association and dissociation curves (first 5 s) are used to calculate the kinetic constants of association (kon) and dissociation (koff) using a 1/1 association model. KD (nM) is then calculated […].

[9] = molecular target: T7, HisTag hCD16aV receptor (R&D System); assay: BLI (Octet), HisTag hCD16aV on anti-Penta-HIS biosensors, 1/1 model; SD 7.7
Description: as §2, §3

[10] = molecular target: T7, HisTag hCD16aV receptor (R&D System); assay: BLI (Octet), HisTag hCD16aV on anti-Penta-HIS biosensors, 1/1 model; SD 10.7
Description: as §2, §3

[11] = molecular target: T7, HisTag hCD16aV receptor (R&D System); assay: BLI (Octet), HisTag hCD16aV on anti-Penta-HIS biosensors, 1/1 model; SD 14.1
[12] = molecular target: T8, HisTag hCD32aH receptor (PX therapeutics) (human, UniProt P12318 34-217, limits assumed); assay: BLI (Octet), HisTag hCD32aH on anti-Penta-HIS biosensors, 1/1 model; SD 29.7
T8 construct: Captured on anti-Penta-HIS biosensors; also called FcγRIIa (CD32a); not shown: HisTag
T8 sequence (looked up): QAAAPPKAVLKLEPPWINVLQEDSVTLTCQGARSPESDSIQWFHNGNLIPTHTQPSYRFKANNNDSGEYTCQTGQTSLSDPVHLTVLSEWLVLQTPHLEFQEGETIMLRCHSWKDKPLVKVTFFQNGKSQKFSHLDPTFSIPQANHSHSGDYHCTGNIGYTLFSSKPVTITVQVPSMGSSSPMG

[13] = molecular target: complement proteins, in particular C1q (complement of the young rabbit serum used in the CDC test) (rabbit); assay: cell-based or functional assay
[14] = molecular target: biotinylated human FcRn receptor (hFcRn), immobilized on Streptavidin Biosensors (human, UniProt P55899 24-297; P61769 21-119, limits assumed, biotinylated (site not stated)); assay: BLI (Octet), biotinylated hFcRn on streptavidin biosensors, pH 6, 1/1 model; SD 0
Description: The association and dissociation curves (first 10 s) are used to calculate the kinetic constants of association (kon) and dissociation (koff) using a 1/1 association model. KD (nM) is then calculated […].

T7 sequence (P08637 17-208 F176V limits assumed): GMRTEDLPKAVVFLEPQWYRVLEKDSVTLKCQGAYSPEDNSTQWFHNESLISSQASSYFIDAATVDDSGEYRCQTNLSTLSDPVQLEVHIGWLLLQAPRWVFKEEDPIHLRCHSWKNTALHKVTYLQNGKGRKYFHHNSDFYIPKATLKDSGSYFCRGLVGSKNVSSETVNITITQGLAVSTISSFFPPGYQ
T2 sequence (P12314 16-374): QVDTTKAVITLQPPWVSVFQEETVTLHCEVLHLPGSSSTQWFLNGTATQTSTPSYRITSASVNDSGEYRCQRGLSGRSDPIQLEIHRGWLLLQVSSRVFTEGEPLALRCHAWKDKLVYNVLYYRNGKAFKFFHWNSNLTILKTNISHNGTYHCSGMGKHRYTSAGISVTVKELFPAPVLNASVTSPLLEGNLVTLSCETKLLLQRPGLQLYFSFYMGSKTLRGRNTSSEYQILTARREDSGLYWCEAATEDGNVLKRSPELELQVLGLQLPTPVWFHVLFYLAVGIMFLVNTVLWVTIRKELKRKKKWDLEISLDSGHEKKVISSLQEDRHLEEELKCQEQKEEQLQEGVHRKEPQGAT
T3 sequence (P08637 17-254): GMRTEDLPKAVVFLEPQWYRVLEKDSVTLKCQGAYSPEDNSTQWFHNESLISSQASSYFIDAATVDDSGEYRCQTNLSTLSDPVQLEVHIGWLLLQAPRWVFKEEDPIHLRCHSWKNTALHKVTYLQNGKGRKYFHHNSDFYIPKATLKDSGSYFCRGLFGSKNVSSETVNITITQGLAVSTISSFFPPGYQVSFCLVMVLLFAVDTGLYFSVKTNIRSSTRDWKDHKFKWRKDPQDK

IC50 [1]: 57 nM | IC50 [2]: 84 nM | IC50 [3]: 262 nM | IC50 [4]: 135 nM | IC50 [5]: 176 nM | IC50 [6]: 13 nM | Inhibition of the secretion of IL-2 of the Jurkat cells transfected with CD64 (IC 25%, nM) [7]: 448 nM | Inhibition of the secretion of IL-2 of the Jurkat cells transfected with CD64 (IC 50%, nM) [7]: 600 nM | Kd [8]: 80.3 nM
B1: A3A-184AY_CHO (K334N/P352S/A378V/V397M/N434Y), Fc variant produced in CHO cells (other)
chain: DKTHTCPPCPAPELLGGPSVFLFPPKPKDTLMISRTPEVTCVVVDVSHEDPEVKFNWYVDGVEVHNAKTKPREEQYNSTYRVVSVLTVLHQDWLNGKEYKCKVSNKALPAPIENTISKAKGQPREPQVYTLSPSRDELTKNQVSLTCLVKGFYPSDIVVEWESNGQPENNYKTTPPMLDSDGSFFLYSKLTVDKSRWQQGNVFSCSVMHEALHYHYTQKSLSLSPGK
notes: also called Fc A3A-184AY CHO

IC50 [2]: 494 nM | IC50 [6]: 14 nM | Inhibition of the secretion of IL-2 of the Jurkat cells transfected with CD64 (IC 25%, nM) [7]: 1460 nM | Inhibition of the secretion of IL-2 of the Jurkat cells transfected with CD64 (IC 50%, nM) [7]: < 1950 nM
B2: Fc MST-HN fragment containing the mutations M252Y/S254T/T256E/H433K/N434F, produced in HEK-293 cells (other, UniProt P01857-1 104-330, looked up, name in EU numbering)
chain: B1 chain with M32Y, S34T, T36E, N114K, S132P, V158A, M177V, H213K, Y214F

IC50 [1]: 55 nM | IC50 [2]: 70 nM | IC50 [4]: 147 nM | IC50 [5]: 132 nM | IC50 [6]: 15 nM | Kd [9]: 59.3 nM | Inhibition of the secretion of IL-2 of the Jurkat cells transfected with CD64 (IC 25%, nM) [7]: 442 nM | Inhibition of the secretion of IL-2 of the Jurkat cells transfected with CD64 (IC 50%, nM) [7]: 600 nM
B3: A3A-184EY_CHO (Y296W/K334N/P352S/A378V/V397M/N434Y), Fc variant produced in CHO cells (other)
chain: B1 chain with Y76W
notes: probably a misprint; also called Fc A3A-184EY CHO

IC50 [1]: 59 nM | IC50 [2]: 87 nM | Kd [10]: 51.2 nM | IC50 [4]: 170 nM | IC50 [6]: 12 nM
B4: A3A-184AY_TGg, Fc variant A3A-184AY produced in the transgenic goat (other)
chain: B1 chain

Kd [11]: 132 nM | Kd [12]: 313 nM | IC50 (read off the curve) [13]: ~200 nM | Kd [14]: 7.8 nM
B5: Fc variant A3A-184AY (HEK) (K334N/P352S/A378V/V397M/N434Y), produced in HEK293 cells (other)
chain: B1 chain
notes: also called Fc A3A 184AY (HEK); rFc A3A-184AY
